Assays:
MBP-SlMYC2 [1] = target: T1, MBP-SlMYC2 (Solanum lycopersicum, UniProt A0A3Q7HRZ6 1-689); assay: competition; unlabeled mutant competitor vs SlATG18h probe; Chemiluminescent EMSA kit (Beyotime); buffer, salt, pH and temperature not stated; conditions: protein: recombinant; tags: N-terminal MBP; chain copies: 2
MBP-SlMYC2 [2] = target: T1, MBP-SlMYC2; assay: competition; unlabeled mutant competitor vs SlATG18a probe; Chemiluminescent EMSA kit (Beyotime); buffer, salt, pH and temperature not stated; conditions: protein: recombinant; tags: N-terminal MBP; chain copies: 2
MBP-SlMYC2 [3] = target: T1, MBP-SlMYC2; assay: competition; unlabeled mutant competitor vs SlATG13a probe; Chemiluminescent EMSA kit (Beyotime); buffer, salt, pH and temperature not stated; conditions: protein: recombinant; tags: N-terminal MBP; chain copies: 2
MBP-SlMYC2 [4] = target: T1, MBP-SlMYC2; assay: EMSA; Chemiluminescent EMSA kit (Beyotime); buffer, salt, pH and temperature not stated; conditions: protein: recombinant; tags: N-terminal MBP; chain copies: 2; label: biotin
MBP-SlMYC2 [5] = target: T1, MBP-SlMYC2; assay: competition; unlabeled mutant competitor vs SlATG13b probe; Chemiluminescent EMSA kit (Beyotime); buffer, salt, pH and temperature not stated; conditions: protein: recombinant; tags: N-terminal MBP; chain copies: 2

T1 sequence (A0A3Q7HRZ6 whole entry): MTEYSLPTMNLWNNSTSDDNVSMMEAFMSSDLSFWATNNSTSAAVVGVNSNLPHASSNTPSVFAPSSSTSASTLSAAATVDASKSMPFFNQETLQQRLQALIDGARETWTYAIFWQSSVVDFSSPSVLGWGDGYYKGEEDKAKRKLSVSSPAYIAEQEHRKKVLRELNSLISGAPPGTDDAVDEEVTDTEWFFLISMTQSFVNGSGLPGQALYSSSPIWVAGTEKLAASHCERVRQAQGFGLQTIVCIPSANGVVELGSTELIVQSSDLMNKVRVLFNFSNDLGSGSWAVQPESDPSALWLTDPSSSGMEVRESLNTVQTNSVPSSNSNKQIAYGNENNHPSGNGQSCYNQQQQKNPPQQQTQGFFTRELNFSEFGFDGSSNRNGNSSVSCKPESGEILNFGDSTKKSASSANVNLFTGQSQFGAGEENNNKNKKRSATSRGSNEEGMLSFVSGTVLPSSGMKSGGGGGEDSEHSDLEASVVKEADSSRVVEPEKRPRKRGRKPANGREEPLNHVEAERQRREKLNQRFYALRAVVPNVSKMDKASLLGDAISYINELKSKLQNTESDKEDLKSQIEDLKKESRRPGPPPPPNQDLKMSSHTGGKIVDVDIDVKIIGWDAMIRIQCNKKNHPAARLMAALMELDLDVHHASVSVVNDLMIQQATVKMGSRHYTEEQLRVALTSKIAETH

Row | Binder | binding result (MBP-SlMYC2 [4]) | further results
1 | SlATG18h mutant probe (G/E-box to TTTTTTTT) (dsDNA) DNA 1: ATTCCATATATTTTTTTTCTCCGTTTCATC DNA 2: GATGAAACGGAGAAAAAAAATATATGGAAT | – | binding result (MBP-SlMYC2 [1]): no binding
2 | SlATG18a mutant probe (G/E-box to TTTTTTTT) (dsDNA) DNA 1: GGATTGGATCTTTTTTTTTCATGTAGGATA DNA 2: TATCCTACATGAAAAAAAAAGATCCAATCC | – | binding result (MBP-SlMYC2 [2]): no binding
3 | SlATG13a mutant probe (G/E-box to TTTTTTTT) (dsDNA) DNA 1: GAGATTTTTTTTTATGTTTTTTTTTAAATT DNA 2: AATTTAAAAAAAAACATAAAAAAAAATCTC | – | binding result (MBP-SlMYC2 [3]): no binding
4 | SlATG18h promoter probe (dsDNA) DNA 1: ATTCCATATAACACATGTCTCCGTTTCATC DNA 2: GATGAAACGGAGACATGTGTTATATGGAAT | binds | –
5 | SlATG13a promoter probe (dsDNA) DNA 1: GAGAACACTTGCTATGTCACGTGCTAAATT DNA 2: AATTTAGCACGTGACATAGCAAGTGTTCTC | binds | –
6 | SlATG13b promoter probe (dsDNA) DNA 1: TTTCTTTGTTTCACACGTTCTTTTTACTTC DNA 2: GAAGTAAAAAGAACGTGTGAAACAAAGAAA | binds | –
7 | SlATG18a promoter probe (dsDNA) DNA 1: GGATTGGATCTACACGTGGCATGTAGGATA DNA 2: TATCCTACATGCCACGTGTAGATCCAATCC | binds | –
8 | SlATG13b mutant probe (G/E-box to TTTTTTTT) (dsDNA) DNA 1: TTTCTTTGTTTCTTTTTTTTTTTTTACTTC DNA 2: GAAGTAAAAAAAAAAAAAGAAACAAAGAAA | – | binding result (MBP-SlMYC2 [5]): no binding
